# Test results from paper PMC2603183.
# Key:
# [1] = molecular target: CHIR-AB1 extracellular domain (chicken); assay: SPR
# [2] = molecular target: CHIR-AB1 extracellular domain (chicken); assay: AUC
# [3] = molecular target: chicken IgY (chicken); assay: SPR
# [4] = molecular target: FcY (CH3-CH4 domains of chicken IgY) (chicken); assay: SEC
substance,measurement,setting,value
chicken IgY (natural protein),Kd,[1],17 nM
same,"microscopic KD, binding of the first CHIR-AB1 to IgY (bivalent analyte model)",[1],403 nM
same,"microscopic KD, binding of the second CHIR-AB1 to IgY (bivalent analyte model)",[1],3900 nM
CHIR-AB1 extracellular domain (receptor),stoichiometry N,[2],2
same,Kd,[3],800 nM
same,stoichiometry N,[4],1.83
